Experimental data reported in US20100273865A1 (VERENIGING VOOR CHRISTELIJK HOGER ONDERWIJS …, published 2010).

Target: T1, CREB (Homo sapiens (Human), UniProt P16220 1-327)
T1 construct: also called CREB1
Test: co-immunoprecipitation from HEK293 cells, Western blot

T1 sequence (P16220 other isoform, or with tags, fused parts or gaps): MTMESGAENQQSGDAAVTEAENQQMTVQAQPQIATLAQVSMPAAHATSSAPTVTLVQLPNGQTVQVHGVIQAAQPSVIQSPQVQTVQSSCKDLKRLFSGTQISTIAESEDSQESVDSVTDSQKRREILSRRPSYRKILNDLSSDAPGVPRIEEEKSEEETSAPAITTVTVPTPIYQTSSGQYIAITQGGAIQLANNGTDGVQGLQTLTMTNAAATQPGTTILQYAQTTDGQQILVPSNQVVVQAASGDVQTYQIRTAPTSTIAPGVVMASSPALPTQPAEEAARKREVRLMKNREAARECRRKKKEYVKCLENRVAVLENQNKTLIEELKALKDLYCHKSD

- binding result: no binding
B1: Flag-tagged dominant-negative NFIL3 (other)
chain: MDYKDDDDKHMASMTGGQQMGRDPDLEQRAEELARENEELEKEAEELEQELAELENKLIALGEENATLKAELLSLKLKFGLISSTVYAQEIQKLSNSTAVYFQDYQTSKAAVSSYVDEHEPAMVAGSCISVIKHSPQSSLSDVSEVSSVEHTQESPAQGGCRSPENKFPVIKQEPVELESFARESREERGAYSASIYQSYMGSSFSTYSHSPPLLQVHGSTSNSPRTSEADEGVVGKSSDGEDEQQVPKGPIHSPVELQRVHATVVKVPEVNPSALPHKLRIKAKAMQVKVEALDSEFEGMQKLSSPADALAKRHFDLEKHGASGTAHSSLPPFSVQVTNIQDWSLRSEHWHHKELGGKTQGTFKTGVVEVKDSGYKVSEAENLYLKQGVANLSAEVVSLKRFIATQPISASDSR
notes: Expressed in HEK293 cells from modified pcDNA3.1; Species of the NFIL3 portion is inferred from the rat cDNA named in the same paragraph; also called DN-NFIL3; dominant-negative NFIL3 protein
